Test: soluble on expression in E. coli; label from the status in PepcDB or PDB records

Soluble on expression in E. coli, soluble:
MGSSHHHHHHSSGLVPRGSEELQNKLEDVVIDRNLLILGKILGEGEFGSVMEGNLKQEDGTSLKVAVKTMKLDNSSQREIEEFLSEAACMKDFSHPNVIRLLGVCIEMSSQGIPKPMVILPFMKYGDLHTYLLYSRLETGPKHIPLQTLLKFMVDIALGMEYLSNRNFLHRDLAARNCMLRDDMTVCVADFGLSKKIYSGDYYRQGRIAKMPVKWIAIESLADRVYTSKSDVWAFGVTMWEIATRGMTPYPGVQNHEMYDYLLHGHRLKQPEDCLDELYEIMYSCWRTDPLDRPTFSVLRLQLEKLLESLPDV
MGSSHHHHHHSSGLVPRGSEHLKNISPIDGRYKKACGELSAFFSEHALIKHRIIVEVRWLLFLNEEELFFEKVTDHSVEVLNQIATNITDSDIARVKAIEEETNHDVKAVEYFVKEKLKNSKREDLLKIKEYVHYLCTSEDINNVAYATCLKACLNDVVIPCLEKIMLKLKDLAVEYSHVPLLSRTHGQPASSTTFGKEMANFYARIHHHVGVIRRVKVCAKFNGAVGNFNAHKVASKDTDWVNTIGLFLKKHFNLTYSIYCTQIQDHDYICELCDGLARANGTLIDLCVDIWLYISNNLLKLKVKEKEVGSSTMPHKVNPIDFENAEGNLHIANAFFKLFSSKLPTSRLQRDLSDSTVLRNIGSSLAYCLIAYKSVLKGLNKIDIDRRNLEEELNQNWSTLAEPIQIVMKRHNYVDAYEELKQFTRGKVIDQKIMQEFIKTKCAFLPQDVVDQLLELTPATYTGYADYLAKNVERLSGERD
MGSSHHHHHHSSGLVPRGSHMAEQVLPQALYLSNMRKAVKIRERTPEDIFKPTNGIIHHFKTMHRYTLEMFRTCQFCPQFREIIHKALIDRNIQATLESQKKLNWCREVRKLVALKTNGDGNCLMHATSQYMWGVQDTDLVLRKALFSTLKETDTRNFKFRWQLESLKSQEFVETGLCYDTRNWNDEWDNLIKMASTDTPMARSGLQYNSLEEIHIFVLCNILRRPIIVISDKMLRSLESGSNFAPLKVGGIYLPLHWPAQECYRYPIVLGYDSHHFVPLVTLKDSGPEIRAVPLVNRDRGRFEDLKVHFLTDPENEMKEKLLKEYLMVIEIPVQGWDHGTTHLINAAKLDEANLPKEINLVDDYFELVQHEYKKWQENSEQGRREGHAQ
MGSSHHHHHHSSGLVPRGSHMASERPVSTLSSQITGELRELNPQATGSSTSLVGQSLFQHSSLDTSQFGLNASIAEVLNASFKDGMLQNSQLIGEIALNYLPNSVMNSPLPIGINLRINNGAKFEKVILNQAFIERVAPEEFKVNPSFIDSRTLGAIKYSIKEPIAPIVIHPVWRFESHQASVVLTVKMSPSLPDEISQIVIEDLVVFVNIDGANATSALSKPQGSFSKEKKRITWRFKEPVVLTRNGEGQRLIARFITDGLAHESAKGVITKFTISETDNVALPHSGAGSGITLTCQELDENNPFGGEWLDVNTKRTLTTGNYHGLA
MGSSHHHHHHSSGLVPRGSHMASMGRIESAFDLGFIRGMTFGFVGQHGTWGTDEARASMRALAEQPFNWVTLAFAGLMEHPGDPAIAYGPPVTVSDDEIASMAELAHALGLKVCLKPTVNCRDGTWRGEIRFEKEHGPDLESWEAWFGSYSDMMAHYAHVAKRTGCEMFCVGCEMTTAEPHEAMWRETIARVRTEYDGLVTYNCNHGREEHVRFWDAVDLISSSAYYPIDRWRDRVPVLREVAEAHEKPLFFMEVGCPSRSGSGACPWDYRHPGAVCLDEQARFYEAMFAAMPDEPWFKGYMLWEWPWKLYPREAASEDGSYCIYGKPAEDVVARAFSAIANR
MGSSHHHHHHSSGLVPRGSHMASMTGGQQMGRGSMNIAVVTDSTAYIPKEMREQHQIHMIPLQVVFREETYREEIELDWKSFYEEVKKHNELPTTSQPPIGELVALYEELGKSYDAVISIHLSSGISGTFSSAAAADSMVDNIDVYPFDSEISCLAQGFYALKAAELIKNGASSPEDIIKELEEMKKTVRAYFMVDDLAHLQRGGRLSSAQAFIGSLLKVKPILHFDNKVIVPFEKIRTRKKAISRIYELLDEDASKGLPMRAAVIHANREEEAAKIIEELSAKYPHVEFYNSYFGAVIGTHLGEGALGICWCFK
MGSSHHHHHHSSGLVPRGSHMDFEEDYDAEFDDNQEGQLETPFPSVAGADDGDNDNDDSVAENMKKKQKREAVVDDGSENAFGIPEFTRKDKTLEEILEMMDSTPPIIPDAVIDYYLTKNGFNVADVRVKRLLALATQKFVSDIAKDAYEYSRIRSSVAVSNANNSQARARQLLQGQQQPGVQQISQQQHQQNEKTTASKVVLTVNDLSSAVAEYGLNIGRPDFYR
MGSSHHHHHHSSGLVPRGSHMEQMHSLESSLPPEQPPTKQAIESLNLELSQEFKLAANAVTRLYRVANEKNSLTKHQGYLTCLDDILCALDSNVTADELRAWCYKRRNDILSNSQDKSLNPVKERERKLNKFSENQHRENEAHKEPFEKDSAVKYNFSFNESNGDLSNINENIAPKFRLSMPPLSVEHPPRNASRIKSWKARTINHGRGDTRNLNDITGLGHERERDRENTHYEKKPKLDSDSEVDIRSFRQDMDL
MGSSHHHHHHSSGLVPRGSHMLEDPGEGQDIWDMLDKGNPFQFYLTRVSGVKPKYNSGALHIKDILSPLFGTLVSSAQFNYCFDVDWLVKQYPPEFRKKPILLVHGDKREAKAHLHAQAKPYENISLCQAKLDIAFGTHHTKMMLLLYEEGLRVVIHTSNLIHADWHQKTQGIWLSPLYPRIADGTHKSGESPTHFKANLISYLTAYNAPSLKEWIDVIHKHDLSETNVYLIGSTPGRFQGSQKDNWGHFRLKKLLKDHASSMPNAESWPVVGQFSSVGSLGADESKWLCSEFKESMLTLGKESKTPGKSSVPLYLIYPSVENVRTSLEGYPAGGSLPYSIQTAEKQNWLHSYFHKWSAETSGRSNAMPHIKTYMRPSPDFSKIAWFLVTSANLSKAAWGALEKNGTQLMIRSYELGVLFLPSALGLDSFKVKQKFFAGSQEPMATFPVPYDLPPELYGSKDRPWIWNIPYVKAPDTHGNMWVPS
MGSSHHHHHHSSGLVPRGSHMYLGRILAVGRNSNGSFVAYRVSSRSFPNRTTSIQEERVAVVPVEGHERDVFRNPYIAYNCIRIVGDTAVVSNGSHTDTIADKVALGMNLRDAIGLSLLAMDYEKDELNTPRIAAAINGSEAFIGIVTADGLMVSRVPEETPVYISTYEQTEPAATEFKAGSPEEAAEFILKGGEFAAFTHPVTAAAAFNDGEGWNLATREM
MGSSHHHHHHSSGLVPRGSNLKIKLQKRRDEVNTCLCIGLDPDEADIKSFMQSEKQNGYQSVKKNLSNSGSSSSSSNSSSGKGELFAPQMGGQMLLAETPPKEAQEKDEFFYFFNHFCFYIINETKEYALAYKMNFAFYLPYGSLGVDVLKNVFDYLHHLNVPTILDIKMNDIGNTVKHYRKFIFDYLRSDSCTANIYMGTQMLRDICLDEECKRYYSTFVLVKTTNADSHIFQNRLSLDGKEAYVVIAEEVQKMAKQLHLEENGEFVGFVVGANCYDEIKKIRELFPDCYILAPGVGAQKGDLRKMLCNGYSKNYEKVLINVGRAITKSGSPQQAAREYHQQIKEVLAELQE
MGSSHHHHHHSSGRENLYFQGHMIMIFTSSCCDNLSIDEIIERAEKGDCEAQYIVGFYYNRDSAIDSPDDEKAFYWLKLAAEQGHCEAQYSLGQKYTEDKSRHKDNEQAIFWLKKAALQGHTFASNALGWTLDRGEAPNYKEAVVWYQIAAESGMSYAQNNLGWMYRNGNGVAKDYALAFFWYKQAALQGHSDAQNNLADLYEDGKGVAQNKTLAAFWYLKSAQQGNRHAQFQIAWDYNAGEGVDQDYKQAMYWYLKAAAQGSVGAYVNIGYMYKHGQGVEKDYQAAFEWFTKAAECNDATAWYNLAIMYHYGEGRPVDLRQALDLYRKVQSSGTRDVSQEIRETEDLL
MGSSHHHHHHSSGRENLYFQGHMTRTNLITGFLGSGKTTSILHLLAHKDPNEKWAVLVNEFGEVGIDGALLADSGALLKEIPGGCMCCVNGLPMQVGLNTLLRQGKPDRLLIEPTGLGHPKQILDLLTAPVYEPWIDLRATLCILDPRLLLDEKSASNENFRDQLAAADIIVANKSDRTTPESEQALQRWWQQNGGDRQLIHSEHGKVDGHLLDLPRRNLAELPASAAHSHQHVVKKGLAALSLPEHQRWRRSLNSGQGYQACGWIFDADTVFDTIGILEWARLAPVERVKGVLRIPEGLVRINRQGDDLHIETQNVAPPDSRIELISSSEADWNALQSALLKLRLATTA

Source: the DeepSol protein solubility set
